The series deals with O=[N+]([O-])c1ccccc1O[C@@H]1O[C@H](CO)[C@H](O)[C@H](O)[C@H]1O. Put plainly: purified protein. The series is classed as biochemical, Pseudomonas tritici. The conditions noted are these: 50 mM HEPES pH 7.5, 50 °C, 5 min, 0.3-60 mM ONPG, 1 mM Mg2+ probably present.

By Km is commonly meant the concentration of substrate that gives half-maximal velocity. As usually defined, the kcat is the number of substrate molecules converted per active site and unit of time at saturation. With “Pstr β-galactosidase (Pseudomonas tritici)”, the Michaelis constant (Km) amounted to 3000 µM and the kcat was 643.98 s⁻¹.

Source of the values: PMC12428694, “A New β-Galactosidase from Pseudomonas tritici SWRI145 for Efficient Bioproduction of Galactooligosaccharides” (Foods, 2025).
